From patent US20210188980A1 (SHANGHAI EPIMAB BIOTHERAPEUTICS, published 2021)

T1: recombinant human LAG-3-his protein (Novoprotein) (human, UniProt P18627 23-450)
T1 construct: Bought; also called huLAG-3; not shown: His tag
T1 sequence (looked up): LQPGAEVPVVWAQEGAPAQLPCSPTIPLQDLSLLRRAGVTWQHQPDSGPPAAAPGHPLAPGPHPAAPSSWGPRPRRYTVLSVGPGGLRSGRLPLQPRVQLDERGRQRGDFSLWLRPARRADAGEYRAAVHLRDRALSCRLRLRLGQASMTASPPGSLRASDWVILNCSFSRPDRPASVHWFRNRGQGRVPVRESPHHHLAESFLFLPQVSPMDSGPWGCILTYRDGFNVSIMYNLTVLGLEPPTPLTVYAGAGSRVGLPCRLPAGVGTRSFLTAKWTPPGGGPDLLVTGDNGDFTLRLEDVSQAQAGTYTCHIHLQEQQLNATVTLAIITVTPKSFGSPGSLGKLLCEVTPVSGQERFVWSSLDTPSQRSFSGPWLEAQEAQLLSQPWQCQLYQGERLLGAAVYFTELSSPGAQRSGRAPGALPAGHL


What was measured:
[1] = target: T1, recombinant human LAG-3-his protein …; test: BLI Octet, Ab on AHC sensor, huLAG-3-his; test group 3
Description: (§1) All 9 humanized antibodies (Table 25) and a chimeric antibody having the parental murine VH and VL domains (mAb747c) were ranked by dissociation rate constant (koff). Briefly, antibodies were characterized for affinities and binding kinetics by Octet RED96 biolayer interferometry (Pall FortéBio LLC). Antibodies were captured by Anti-HIgG Fc Capture (AHC) Biosensors (Pall) at a concentration of 100 nM for 30 seconds. Sensors were then dipped into running buffer (1× pH7.2 PBS, 0.05% Tween 20, 0.1% BSA) for 60 seconds to check baseline. Binding was measured by dipping sensors into a single concentration of recombinant human LAG-3-his protein (Novoprotein). Dissociation was followed by dipping sensors into running buffer for 1200 seconds. The association and dissociation curves were fitted to a 1:1 Langmuir binding model using FortéBio Data Analysis software (Pall).
All 13 humanized antibodies (Table 39) and chimeric anti-LAG-3 antibody mAb747c having the parental murine VH and VL domains were ranked by dissociation rate constant (koff) in the same manner described in Example 9.1 supra. In each test group, the off-rates of antibodies were able to be compared with that of mAb747c. The off-rate ratios were calculated by the off-rate of antibody to that of mAb747c of its group and were compared all together. The lower the ratio was, the higher was the affinity of the antibody.

[2] = target: T1, recombinant human LAG-3-his protein …; test: BLI Octet, Ab on AHC sensor, huLAG-3-his analyte
Description: as §1

[3] = target: T1, recombinant human LAG-3-his protein …; test: BLI Octet, Ab on AHC sensor, huLAG-3-his; test group 2
Description: as §1
The seven Fab clones were converted to full IgG proteins. Briefly, the VH and VL genes were produced synthetically and then cloned into vectors containing coding sequences for the human IgG1 and human kappa constant domains, respectively. The heavy chain and cognate light chain plasmids were co-transfected into HEK 293E cells, individually. After approximately six days of post-transfection cell culture, the supernatants were harvested and subjected to Protein A affinity chromatography. The affinity of purified antibodies was ranked by Octet® RED96 biolayer interferometry (see, Example 9.1, supra).

Row | koff [1] [s⁻¹] | off-rate ratio to that of mAb747c [1] [%] | koff [2] [s⁻¹] | koff [3] [s⁻¹] | off-rate ratio to that of mAb747c [3] [%] | off-rate constant, fold of the chimeric control mAb747c [2] [fold] | Binder
1 | 0.000321 | 51 | – | – | – | – | HumAb747V-73 (antibody, human IgG1, V domains shown, engineered HumAb747-60 variant; human IgG1/kappa constant domains) VH: EVQLVQSGAEVKKPGATVKLSCTASGFNIKDDYMHWVKQRPEQGLDWIGWIVPRNGNTVYASKFQGKATITADTSTNTAYLELSSLRSEDTAVYYCTVYGDYWGQGTTVTVSS VL: DIQMTQSPSSLSASVGDRVTITCRASQEISGYLSWLQQKPGGAIKRLIYAASTLDSGVPSRFSGSRSGSDYTLTISSLQPEDFADYYCLQYASYPLTFGQGTKLELK
2 | – | – | 0.00114 | 0.00391 | 240 | – | HumAb747-39 (antibody, human IgG1, V domains shown, humanized mAb747; human IgG1 and human kappa constant domains) VH: EVQLVQSGAEVKKPGASVKVSCKASDFNIKDDYMHWVRQAPGQGLEWIGWIVPENGNTEYASKFQGRVTITADTSINTAYMELSRLRSDDTAVYYCTVYGDYWGQGTTVTVSS VL: DIQMTQSPSSLSASVGDRVTINCRASQEISGYLSWLQQKPEGTIKRLIYAASTLDSGVPSRFSGSRSGSDYTLTISSLQPEDFATYYCLQYASYPLTFGGGTKVEIK
3 | – | – | 0.00083 | 0.00428 | 263 | 2.2 | HumAb747-42 (antibody, human IgG1, V domains shown, humanized mAb747; human IgG1 and human kappa constant domains) VH: EVQLVQSGAEVKKPGASVKVSCKASDFNIKDDYMHWVRQAPGQGLEWIGWIVPENGNTEYASKFQGKATITADTSINTAYMELSRLRSDDTAVYYCTVYGDYWGQGTTVTVSS VL: DIQMTQSPSSLSASVGDRVTINCRASQEISGYLSWLQQKPEGTIKRLIYAASTLDSGVPSRFSGSRSGSDYTLTISSLQPEDFATYYCLQYASYPLTFGGGTKVEIK
